From PMC9694023

Molecular target: T1, endogenous IRF7 of HEK293 cells (human (endogenous in HEK293)), Q92985
T1 chain: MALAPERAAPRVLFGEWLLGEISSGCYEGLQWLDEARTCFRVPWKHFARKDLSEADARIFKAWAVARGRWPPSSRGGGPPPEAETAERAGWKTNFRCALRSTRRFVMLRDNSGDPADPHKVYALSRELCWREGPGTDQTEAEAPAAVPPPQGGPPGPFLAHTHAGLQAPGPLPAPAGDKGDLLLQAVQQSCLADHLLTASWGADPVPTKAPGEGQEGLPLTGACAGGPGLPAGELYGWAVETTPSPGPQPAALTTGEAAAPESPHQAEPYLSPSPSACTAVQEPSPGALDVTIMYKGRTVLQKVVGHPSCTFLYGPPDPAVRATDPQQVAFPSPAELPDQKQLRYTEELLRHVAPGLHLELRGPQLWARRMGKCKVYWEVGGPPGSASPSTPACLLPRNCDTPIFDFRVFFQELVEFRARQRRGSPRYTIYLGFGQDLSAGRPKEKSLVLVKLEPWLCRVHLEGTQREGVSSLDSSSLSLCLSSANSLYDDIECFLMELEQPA
Assay: native gel or EMSA
Settings: remark: other sources report otherwise

B1: endogenous IRF7 of HEK293 cells, Q92985 1-503 (natural protein)
chain: T1 chain
stoichiometry N: 2
